Data reported in article PMC10397247.

Key:
[1] = molecular target: T1, 4H446-AA; assay: two-hybrid library CCmax; settings: mean of both orientations;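 further: natural log of median RNA to DNA barcode read ratio; higher means stronger binding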
T1 chain: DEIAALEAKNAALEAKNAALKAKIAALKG

[2] = molecular target: T2, 4H3049-AA; assay: two-hybrid library CCmax; settings: mean of both orientations;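 further: natural log of median RNA to DNA barcode read ratio; higher means stronger binding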
T2 chain: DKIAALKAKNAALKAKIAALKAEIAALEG

[3] = molecular target: T3, 4H2903-AA; assay: two-hybrid library CCmax; settings: mean of both orientations;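 further: natural log of median RNA to DNA barcode read ratio; higher means stronger binding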
T3 chain: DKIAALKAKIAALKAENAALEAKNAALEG

[4] = molecular target: T4, 4H2699-AA; assay: two-hybrid library CCmax; settings: mean of both orientations;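 further: natural log of median RNA to DNA barcode read ratio; higher means stronger binding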
T4 chain: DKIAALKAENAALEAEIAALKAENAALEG

[5] = molecular target: T5, 4H2961-AA; assay: two-hybrid library CCmax
T5 chain: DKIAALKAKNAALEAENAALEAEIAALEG

[6] = molecular target: T6, 4H3629-AA; assay: two-hybrid library CCmax; settings: mean of both orientations
T6 chain: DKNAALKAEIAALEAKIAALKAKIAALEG

[7] = molecular target: T7, 4H63-AA; assay: two-hybrid library CCmax; settings: mean of both orientations
T7 chain: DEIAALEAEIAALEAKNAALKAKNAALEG

[8] = molecular target: T8, 4H130-AA; assay: two-hybrid library CCmax
T8 chain: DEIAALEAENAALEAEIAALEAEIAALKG

[9] = molecular target: T9, 4H1454-AA; assay: two-hybrid library CCmax; settings: mean of both orientations
T9 chain: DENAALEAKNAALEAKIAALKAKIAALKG

[10] = molecular target: T10, 4H2728-AA; assay: two-hybrid library CCmax; settings: mean of both orientations
T10 chain: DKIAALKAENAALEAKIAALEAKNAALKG

[11] = molecular target: T11, 4H249-AA; assay: two-hybrid library CCmax; settings: mean of both orientations
T11 chain: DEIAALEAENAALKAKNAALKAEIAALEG

[12] = molecular target: T12, 4H1360-AA; assay: two-hybrid library CCmax; settings: mean of both orientations
T12 chain: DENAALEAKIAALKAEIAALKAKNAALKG

[13] = molecular target: T13, 4H3595-AA; assay: two-hybrid library CCmax; settings: mean of both orientations
T13 chain: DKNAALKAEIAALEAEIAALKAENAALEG

[14] = molecular target: T14, 4H1913-AA; assay: two-hybrid library CCmax; settings: mean of both orientations
T14 chain: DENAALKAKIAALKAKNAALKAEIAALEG

[15] = molecular target: T15, 4H2580-AA; assay: two-hybrid library CCmax; settings: mean of both orientations
T15 chain: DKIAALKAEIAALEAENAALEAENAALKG

[16] = molecular target: T16, 4H3782-AA; assay: two-hybrid library CCmax; settings: mean of both orientations
T16 chain: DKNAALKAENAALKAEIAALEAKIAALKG

[17] = molecular target: T17, 4H341-AA; assay: two-hybrid library CCmax; settings: mean of both orientations
T17 chain: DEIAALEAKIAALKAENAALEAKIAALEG

[18] = molecular target: T18, 4H3969-AA; assay: two-hybrid library CCmax; settings: mean of both orientations
T18 chain: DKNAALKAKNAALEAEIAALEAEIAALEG

[19] = molecular target: T19, 4H3939-AA; assay: two-hybrid library CCmax; settings: mean of both orientations
T19 chain: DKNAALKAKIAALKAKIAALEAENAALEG

[20] = molecular target: T20, 4H2621-AA; assay: two-hybrid library CCmax; settings: mean of both orientations
T20 chain: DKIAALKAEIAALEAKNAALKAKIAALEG

[21] = molecular target: T21, 4H464-AA; assay: two-hybrid library CCmax; settings: mean of both orientations
T21 chain: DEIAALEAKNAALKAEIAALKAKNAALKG

[22] = molecular target: T22, 4H380-AA; assay: two-hybrid library CCmax; settings: mean of both orientations
T22 chain: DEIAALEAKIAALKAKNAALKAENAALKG

[23] = molecular target: T23, 4H2774-AA; assay: two-hybrid library CCmax; settings: mean of both orientations
T23 chain: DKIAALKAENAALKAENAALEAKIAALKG

[24] = molecular target: T24, 4H3414-AA; assay: two-hybrid library CCmax; settings: mean of both orientations
T24 chain: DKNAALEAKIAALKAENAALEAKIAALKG

[25] = molecular target: T25, 4H3129-AA; assay: two-hybrid library CCmax; settings: mean of both orientations
T25 chain: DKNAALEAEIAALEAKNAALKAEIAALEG

[26] = molecular target: T26, 4H1349-AA; assay: two-hybrid library CCmax; settings: mean of both orientations
T26 chain: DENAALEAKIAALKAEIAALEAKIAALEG

[27] = molecular target: T27, 4H1558-AA; assay: two-hybrid library CCmax; settings: mean of both orientations
T27 chain: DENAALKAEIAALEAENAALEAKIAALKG

[28] = molecular target: T28, 4H483-AA; assay: two-hybrid library CCmax; settings: mean of both orientations
T28 chain: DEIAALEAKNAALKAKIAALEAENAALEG

[29] = molecular target: T29, P9A-bA; assay: two-hybrid library CCNG1
T29 chain: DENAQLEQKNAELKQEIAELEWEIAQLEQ

[30] = molecular target: T30, P4A-bA; assay: two-hybrid library CCNG1
T30 chain: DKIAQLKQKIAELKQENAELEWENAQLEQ

[31] = molecular target: T31, P5A-bA; assay: two-hybrid library CCNG1
T31 chain: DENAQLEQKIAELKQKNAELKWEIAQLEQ

[32] = molecular target: T32, P6A-bA; assay: two-hybrid library CCNG1
T32 chain: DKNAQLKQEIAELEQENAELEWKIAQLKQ

[33] = molecular target: T33, P7A-bA; assay: two-hybrid library CCNG1
T33 chain: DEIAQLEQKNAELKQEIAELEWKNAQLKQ

[34] = molecular target: T34, P2A-bA; assay: two-hybrid library CCNG1
T34 chain: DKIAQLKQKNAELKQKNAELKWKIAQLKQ

[35] = molecular target: T35, P1A-bA; assay: two-hybrid library CCNG1
T35 chain: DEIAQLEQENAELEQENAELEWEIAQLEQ

[36] = molecular target: T36, P8A-bA; assay: two-hybrid library CCNG1
T36 chain: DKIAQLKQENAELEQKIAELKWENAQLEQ

[37] = molecular target: T37, P3A-bA; assay: two-hybrid library CCNG1
T37 chain: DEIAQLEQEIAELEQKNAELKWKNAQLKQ

[38] = molecular target: T38, P12A-bA; assay: two-hybrid library CCNG1
T38 chain: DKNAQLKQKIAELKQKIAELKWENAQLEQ

[39] = molecular target: T39, 4H2576-bA; assay: two-hybrid library CCNG1
T39 chain: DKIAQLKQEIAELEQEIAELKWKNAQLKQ

[40] = molecular target: T40, 4H883-bA; assay: two-hybrid library CCNG1
T40 chain: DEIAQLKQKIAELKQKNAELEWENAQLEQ

[41] = molecular target: T41, 4H570-bN; assay: two-hybrid library CCNG1
T41 chain: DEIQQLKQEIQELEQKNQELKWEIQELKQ

[42] = molecular target: T42, 4H607-bA; assay: two-hybrid library CCNG1
T42 chain: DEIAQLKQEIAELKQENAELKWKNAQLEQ

[43] = molecular target: T43, 4H1845-bA; assay: two-hybrid library CCNG1
T43 chain: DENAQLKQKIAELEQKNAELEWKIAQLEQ

[44] = molecular target: T44, 4H797-bA; assay: two-hybrid library CCNG1
T44 chain: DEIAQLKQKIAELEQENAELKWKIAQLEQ

[45] = molecular target: T45, 4H2667-bA; assay: two-hybrid library CCNG1
T45 chain: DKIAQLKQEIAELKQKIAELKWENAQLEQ

[46] = molecular target: T46, 4H72-bA; assay: two-hybrid library CCNG1
T46 chain: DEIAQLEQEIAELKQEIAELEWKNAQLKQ

[47] = molecular target: T47, 4H1446-bA; assay: two-hybrid library CCNG1
T47 chain: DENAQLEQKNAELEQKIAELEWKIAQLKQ

[48] = molecular target: T48, 4H4001-bA; assay: two-hybrid library CCNG1
T48 chain: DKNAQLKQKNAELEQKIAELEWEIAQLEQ

[49] = molecular target: T49, 4H3189-bA; assay: two-hybrid library CCNG1
T49 chain: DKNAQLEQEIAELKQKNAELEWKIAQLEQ

[50] = molecular target: T50, 4H462-bA; assay: two-hybrid library CCNG1
T50 chain: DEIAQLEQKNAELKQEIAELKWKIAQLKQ

[51] = molecular target: T51, 4H1369-bA; assay: two-hybrid library CCNG1
T51 chain: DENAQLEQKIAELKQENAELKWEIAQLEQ

[52] = molecular target: T52, 4H370-bA; assay: two-hybrid library CCNG1
T52 chain: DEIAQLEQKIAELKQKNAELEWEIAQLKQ

[53] = molecular target: T53, 4H687-bA; assay: two-hybrid library CCNG1
T53 chain: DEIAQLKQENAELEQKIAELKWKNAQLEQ

[54] = molecular target: T54, 4H568-bA; assay: two-hybrid library CCNG1
T54 chain: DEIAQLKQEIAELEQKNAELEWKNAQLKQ

[55] = molecular target: T55, 4H2610-bA; assay: two-hybrid library CCNG1
T55 chain: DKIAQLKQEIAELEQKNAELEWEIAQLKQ

[56] = molecular target: T56, 4H3782-bA; assay: two-hybrid library CCNG1
T56 chain: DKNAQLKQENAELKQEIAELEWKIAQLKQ

[57] = molecular target: T57, 4H953-bA; assay: two-hybrid library CCNG1
T57 chain: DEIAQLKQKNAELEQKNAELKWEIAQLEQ

[58] = molecular target: T58, 4H967-bA; assay: two-hybrid library CCNG1
T58 chain: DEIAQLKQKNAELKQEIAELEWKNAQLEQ

[59] = molecular target: T59, 4H2697-bA; assay: two-hybrid library CCNG1
T59 chain: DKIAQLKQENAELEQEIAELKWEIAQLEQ

[60] = molecular target: T60, 4H3855-bA; assay: two-hybrid library CCNG1
T60 chain: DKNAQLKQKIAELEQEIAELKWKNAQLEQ

[61] = molecular target: T61, 4H918-bA; assay: two-hybrid library CCNG1
T61 chain: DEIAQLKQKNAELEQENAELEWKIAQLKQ

[62] = molecular target: T62, 4H3606-bA; assay: two-hybrid library CCNG1
T62 chain: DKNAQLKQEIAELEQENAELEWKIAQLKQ

[63] = molecular target: T63, 4H331-bA; assay: two-hybrid library CCNG1
T63 chain: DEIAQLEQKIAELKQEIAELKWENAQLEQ

[64] = molecular target: T64, 4H3843-bA; assay: two-hybrid library CCNG1
T64 chain: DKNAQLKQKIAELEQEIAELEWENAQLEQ

Binder: DEIAALEAENAALEAEIAALEAEIAALKG [4H130-AA]
- interaction score [1]: 1.05
- interaction score [2]: 1.67
- interaction score [3]: -1.15
- interaction score [4]: -0.46
- interaction score [5]: -0.589
- interaction score [6]: 0.896
- interaction score [7]: -1.29
- interaction score [8]: 1.11
- interaction score [9]: 1.52
- interaction score [10]: 0.54
- interaction score [11]: 1.18
- interaction score [12]: 1.22
- interaction score [13]: 0.698
- interaction score [14]: 1.08
- interaction score [15]: -1.46
- interaction score [16]: 1.3
- interaction score [17]: 0.154
- interaction score [18]: -0.404
- interaction score [19]: 1.29
- interaction score [20]: 0.962
- interaction score [21]: 1.95
- interaction score [22]: -0.0955
- interaction score [23]: 0.9
- interaction score [24]: 1
- interaction score [25]: -0.746
- interaction score [26]: -0.443
- interaction score [27]: -0.952
- interaction score [28]: 0.0918

Binder: DKNAQLKQKIAELKQKIAELKWENAQLEQ [P12A-bA]
- interaction score [29]: 0.0326
- interaction score [30]: -1.03
- interaction score [31]: -1.16
- interaction score [32]: -0.314
- interaction score [33]: -1.88
- interaction score [34]: -1.29
- interaction score [35]: -0.14
- interaction score [36]: -1.32
- interaction score [37]: 0.536
- interaction score [38]: -0.937

Binder: DENAQLEQKIAELKQENAELKWEIAQLEQ [4H1369-bA]
- interaction score [39]: -0.209
- interaction score [40]: -1.53
- interaction score [41]: 0.413
- interaction score [42]: -1.2
- interaction score [43]: -1.43
- interaction score [44]: -0.836
- interaction score [45]: -0.912
- interaction score [46]: -1.2
- interaction score [47]: -0.956
- interaction score [48]: -0.513
- interaction score [49]: -0.843
- interaction score [50]: -0.339
- interaction score [51]: -0.294
- interaction score [52]: -1.03
- interaction score [53]: -0.0949
- interaction score [54]: -1.77
- interaction score [55]: -0.708
- interaction score [56]: -0.939
- interaction score [57]: -1.23
- interaction score [58]: -1.41
- interaction score [59]: -0.782
- interaction score [60]: -1.08
- interaction score [61]: -1.28
- interaction score [62]: 2.35
- interaction score [63]: -0.963
- interaction score [64]: -0.634
